Values of other authors, collected in patent US20210333272A1.

Tested on: CD63 fragment
Details: CITED BasePair Biotechnologies CD63 aptamer data sheet; cited from earlier work

BasePair CD63 aptamer (ATW0056)
Kd: 17.1 nM
